Biological target: FRET-GATE-16 (human) (UniProt P60520)
Sequence (P60520 whole entry): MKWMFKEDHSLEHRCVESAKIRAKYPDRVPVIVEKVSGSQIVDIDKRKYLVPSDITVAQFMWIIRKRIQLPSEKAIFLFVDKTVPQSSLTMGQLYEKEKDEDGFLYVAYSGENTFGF

catalytic efficiency (kcat/KM) of cleavage, FRET-based assay, 37°C, Buffer B: 1310 mol^−1S^−1
Substance: Atg4A (from UniProt Q8WYN0 1-398) (enzyme)
